Results taken from article PMC3553496 (Science signaling, 2011).

Experiments:
Experiment in all cases: peptide or protein array
[1] = target: T1, Ankyrin repeat and SAM domain–containing protein 1A peptide (18-mer) (human)
T1 peptide: DRPYEEPPQKPPRFSQLR

[2] = target: T2, NEDD9-interacting protein with calponin homology and LIM domains peptide (18-mer) (human)
T2 peptide: DPEMEPPPKPPRSCSALA

[3] = target: T3, Focal adhesion kinase 1 peptide (18-mer) (human)
T3 peptide: DPAAPPKKPPRPGAPGHL

[4] = target: T4, Serine-threonine protein kinase N3 peptide (18-mer) (human)
T4 peptide: EMTPPPKPPRLYLPQEPT

[5] = target: T5, Rab11 family interacting protein 5 peptide (18-mer) (human)
T5 peptide: RIMETSPTLLQIPPGPPK

[6] = target: T6, Serine-threonine protein kinase WNK1 peptide (18-mer) (human)
T6 peptide: NATALELPGLPLSLPQPS

[7] = target: T7, Tight junction protein ZO-2 peptide (18-mer) (human)
T7 peptide: FGRSILKPSTPIPPQEGE

[8] = target: T8, U1 small nuclear ribonucleoprotein C peptide (18-mer) (human)
T8 peptide: GAMIPPPPSLPGPPRPGM

[9] = target: T9, Glutamate–cysteine ligase catalytic peptide (18-mer) (human)
T9 peptide: WQTMRFKPPPPNSDIGWR

[10] = target: T10, YLP motif–containing protein 1 peptide (18-mer) (human)
T10 peptide: HHLPPPPLPPPPVMPGGG

[11] = target: T11, Dishevelled, dsh homolog 3 peptide (18-mer) (human)
T11 peptide: MAFPRPRPWGPQEPLRAA

[12] = target: T12, Gephyrin peptide (18-mer) (human)
T12 peptide: FGRVFMKPGLPTTFATLD

[13] = target: T13, SET and MYND domain–containing protein 3 peptide (18-mer) (human)
T13 peptide: NGLRAVTPLRPGELLFRS

[14] = target: T14, EGFR kinase substrate 8 peptide (18-mer) (human)
T14 peptide: PKEQFIPPYVPRFRNGWE

[15] = target: T15, Coiled-coil domain–containing protein KIAA1826 peptide (18-mer) (human)
T15 peptide: SRRENELPDFPHIDEFFT

[16] = target: T16, UPF0027 protein C22orf28 peptide (18-mer) (human)
T16 peptide: GSTRAFPPHHPLIAVDYQ

[17] = target: T17, Splicing factor 1 peptide (18-mer) (human)
T17 peptide: GMPPFGMPPAPPPPPPQN

[18] = target: T18, DAZ-associated protein 1 peptide (18-mer) (human)
T18 peptide: QFSFGYGPPPPPPDQFAP

[19] = target: T19, Diaphanous homolog 1 peptide (18-mer) (human)
T19 peptide: LPGGTAIPPPPPLPGSAR

[20] = target: T20, Tyrosine protein kinase ABL1 peptide (18-mer) (human)
T20 peptide: KKKKKTAPTPPKRSSSFR

[21] = target: T21, Adenylyl cyclase–associated protein 1 peptide (18-mer) (human)
T21 peptide: PPPPPPCPPPPPVSTISC

[22] = target: T22, Statherin peptide (18-mer) (human)
T22 peptide: RFGYGYGPYQPVPEQPLY

[23] = target: T23, Proline-rich protein 4 peptide (18-mer) (human)
T23 peptide: GHRQLSLPRFPSVSLQEA

B1: GST-tagged ARHGAP26 SH3 domain (domain or fragment, human, UniProt Q9UNA1 759-814, looked up)
chain: RKAKALYACKAEHDSELSFTAGTVFDNVHPSQEPGWLEGTLNGKTGLIPENYVEFL
- relative binding strength (% of the strongest interaction of this SH3 domain) [1]: 27%
- relative binding strength (% of the strongest interaction of this SH3 domain) [2]: 64%
- relative binding strength (% of the strongest interaction of this SH3 domain) [3]: 91%
- relative binding strength (% of the strongest interaction of this SH3 domain) [4]: 100%
- relative binding strength (% of the strongest interaction of this SH3 domain) [5]: 6%

B2: GST-tagged ARHGAP12 SH3 domain (domain or fragment, human, UniProt Q8IWW6 15-73, looked up)
chain: VYIEVEYDYEYEAKDRKIVIKQGERYILVKKTNDDWWQVKPDENSKAFYVPAQYVKEVT
- relative binding strength (% of the strongest interaction of this SH3 domain) [6]: 52%
- relative binding strength (% of the strongest interaction of this SH3 domain) [7]: 93%
- relative binding strength (% of the strongest interaction of this SH3 domain) [8]: 100%

B3: GST-tagged SRGAP2 SH3 domain (domain or fragment)
chain: not shown
- relative binding strength (% of the strongest interaction of this SH3 domain) [9]: 18%
- relative binding strength (% of the strongest interaction of this SH3 domain) [10]: 100%
- relative binding strength (% of the strongest interaction of this SH3 domain) [11]: 9%
- relative binding strength (% of the strongest interaction of this SH3 domain) [12]: 55%

B4: GST-tagged ARHGAP9 SH3 domain (domain or fragment, human, UniProt Q9BRR9 25-87, looked up)
chain: SQLCALYAFTYTGADGQQVSLAEGDRFLLLRKTNSDWWLARRLEAPSTSRPIFVPAAYMIEES
- relative binding strength (% of the strongest interaction of this SH3 domain) [13]: 100%
- relative binding strength (% of the strongest interaction of this SH3 domain) [14]: 24%
- relative binding strength (% of the strongest interaction of this SH3 domain) [15]: 70%
- relative binding strength (% of the strongest interaction of this SH3 domain) [16]: 13%

B5: GST-tagged ARHGAP4 SH3 domain (domain or fragment)
chain: not shown
- relative binding strength (% of the strongest interaction of this SH3 domain) [17]: 7%
- relative binding strength (% of the strongest interaction of this SH3 domain) [18]: 18%
- relative binding strength (% of the strongest interaction of this SH3 domain) [19]: 100%

B6: GST-tagged SNX26 SH3 domain (domain or fragment, human, UniProt O14559 189-247, looked up)
chain: AAAHVIKRYTAQAPDELSFEVGDIVSVIDMPPTEDRSWWRGKRGFQVGFFPSECVELFT
- relative binding strength (% of the strongest interaction of this SH3 domain) [20]: 20%
- relative binding strength (% of the strongest interaction of this SH3 domain) [21]: 10%
- relative binding strength (% of the strongest interaction of this SH3 domain) [22]: 28%
- relative binding strength (% of the strongest interaction of this SH3 domain) [23]: 100%
